Test results taken from article PMC4551533, “Selection of DNA aptamers for ovarian cancer biomarker HE4 using CE-SELEX and high-throughput sequencing”.

Experiments:
HE4-GST (human) = target: T1, HE4-GST (human) (UniProt Q14508); assay: fluorescence anisotropy; details: TGK: 25 mM Tris, 192 mM glycine, 5 mM KH2PO4, pH 8.3, 25 C, no divalent cations; APCE 10 nM DNA, 1 mg/mL BSA; anisotropy 0.1 mg/mL BSA, HE4-GST 0-750 nM
T1 sequence: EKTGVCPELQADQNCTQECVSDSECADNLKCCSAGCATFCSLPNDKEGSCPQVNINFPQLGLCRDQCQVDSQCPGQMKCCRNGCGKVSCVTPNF

HE4-GST [1] = target: T2, HE4-GST (human, UniProt Q14508 31-124); assay: fluorescence anisotropy; TGK: 25 mM Tris, 192 mM glycine, 5 mM KH2PO4, pH 8.3, 25 C, no divalent cations; APCE 10 nM DNA, 1 mg/mL BSA; anisotropy 0.1 mg/mL BSA, HE4-GST 0-750 nM; details: protein: commercial; tags: GST; label: 5' FAM (APCE); 5' TEX615 (anisotropy)
T2 sequence: T1 sequence

HE4-GST [2] = target: T2, HE4-GST; assay: affinity probe capillary electrophoresis; TGK: 25 mM Tris, 192 mM glycine, 5 mM KH2PO4, pH 8.3, 25 C, no divalent cations; APCE 10 nM DNA, 1 mg/mL BSA; anisotropy 0.1 mg/mL BSA, HE4-GST 0-750 nM; details: protein: commercial; tags: GST; label: 5' FAM (APCE); 5' TEX615 (anisotropy)
HE4-GST [3] = target: T2, HE4-GST; assay: affinity probe capillary electrophoresis; discrepant with anisotropy; TGK: 25 mM Tris, 192 mM glycine, 5 mM KH2PO4, pH 8.3, 25 C, no divalent cations; APCE 10 nM DNA, 1 mg/mL BSA; anisotropy 0.1 mg/mL BSA, HE4-GST 0-750 nM; details: protein: commercial; tags: GST; label: 5' FAM (APCE); 5' TEX615 (anisotropy)

Molecule | Kd (HE4-GST (human)) | Kd (HE4-GST [1]) | Kd (HE4-GST [2]) | Kd (HE4-GST [3])
ATGGTCGCAAGAACTGAGAATTTAC [D3] | 26000 nM |  |  | 
CACAGTGCGTCACATTTAGGGCATT (ssDNA) [A3] |  | 9100 nM | 500 nM | 
CCGTCTTCTGCTTGAAAAAAAAAAA (ssDNA) [L1] |  |  |  | 300 nM
CAGTGCGTGCTTATTGGCGTAGCGTC (ssDNA) [B10] |  | 280 nM | 870 nM | 
TTATCGTACGACAGTCATCCTACAC (ssDNA) [A1] |  | 2200 nM | 390 nM | 
